Laboratory results taken from patent publication US20200071671A1.

Target: hCCNT1-C261Y (human) (UniProt O60563)
Experiment: cell-based or functional assay

Chain of UniProt O60563 (O60563 whole entry C261Y): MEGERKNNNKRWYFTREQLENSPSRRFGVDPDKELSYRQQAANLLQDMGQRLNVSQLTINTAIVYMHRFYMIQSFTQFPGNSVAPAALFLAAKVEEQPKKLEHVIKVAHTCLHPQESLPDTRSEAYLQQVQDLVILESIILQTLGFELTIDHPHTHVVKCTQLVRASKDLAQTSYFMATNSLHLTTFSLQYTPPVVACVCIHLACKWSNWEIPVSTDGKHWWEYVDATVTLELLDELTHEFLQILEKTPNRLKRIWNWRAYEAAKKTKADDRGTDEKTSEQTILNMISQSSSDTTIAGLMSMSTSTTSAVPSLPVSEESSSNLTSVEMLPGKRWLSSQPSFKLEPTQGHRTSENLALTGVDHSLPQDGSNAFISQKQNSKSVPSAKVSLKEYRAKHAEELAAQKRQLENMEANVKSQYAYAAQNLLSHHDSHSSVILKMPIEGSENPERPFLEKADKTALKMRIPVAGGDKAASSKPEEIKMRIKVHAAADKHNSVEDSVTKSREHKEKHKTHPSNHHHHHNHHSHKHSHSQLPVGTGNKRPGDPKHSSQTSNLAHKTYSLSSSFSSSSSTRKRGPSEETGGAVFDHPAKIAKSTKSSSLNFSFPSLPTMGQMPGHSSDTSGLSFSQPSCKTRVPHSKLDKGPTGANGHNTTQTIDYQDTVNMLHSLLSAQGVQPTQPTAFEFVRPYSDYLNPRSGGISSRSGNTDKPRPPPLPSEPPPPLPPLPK

HIV-1 Tat protein
fold decrease in Tat-dependent GFP expression, dual-colour single-round HIV-1 reporter virus, hCCNT1-C261Y Jurkat cells against wild-type parental cells: > 16 fold
